We go through three molecules from paper PMC3897721, “Structure of Utp21 Tandem WD Domain Provides Insight into the Organization of the UTPB Complex Involved in Ribosome Synthesis” (PLoS ONE, 2014).

For the test, the target named is T1, Utp21 1–684 (tandem WD domain, GST-tag cleaved) (yeast (S. cerevisiae), UniProt Q06078 1-684).
T1 construct: The methods say only 'purified as described above' for the protein of the pull-down; also called tandem WD domain of Utp21; source: E. coli BL21(DE3), purified (Glutathione Sepharose, on-bead PreScission cleavage, Superdex 200); not shown: GST, N-terminal, cleaved
T1 sequence (looked up): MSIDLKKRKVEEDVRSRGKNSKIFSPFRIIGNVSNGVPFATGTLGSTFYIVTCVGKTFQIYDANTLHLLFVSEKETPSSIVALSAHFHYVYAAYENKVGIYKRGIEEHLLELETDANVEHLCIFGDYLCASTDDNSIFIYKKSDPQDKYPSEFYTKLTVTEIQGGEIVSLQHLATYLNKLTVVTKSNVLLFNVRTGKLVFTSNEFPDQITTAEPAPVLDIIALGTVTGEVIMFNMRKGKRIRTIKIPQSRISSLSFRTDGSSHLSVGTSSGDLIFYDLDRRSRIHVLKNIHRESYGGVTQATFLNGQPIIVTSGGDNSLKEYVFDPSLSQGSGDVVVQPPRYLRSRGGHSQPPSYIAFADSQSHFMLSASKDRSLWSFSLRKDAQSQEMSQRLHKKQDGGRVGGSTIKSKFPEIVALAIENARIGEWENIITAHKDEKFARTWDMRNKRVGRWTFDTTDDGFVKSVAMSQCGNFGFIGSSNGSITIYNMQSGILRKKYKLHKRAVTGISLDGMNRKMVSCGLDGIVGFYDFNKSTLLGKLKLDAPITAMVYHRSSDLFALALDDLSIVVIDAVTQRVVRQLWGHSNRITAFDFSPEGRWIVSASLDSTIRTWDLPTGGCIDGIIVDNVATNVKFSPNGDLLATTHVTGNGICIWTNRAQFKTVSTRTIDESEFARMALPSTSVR
The experiment in a line: pull-down; His6-Smt3-tagged Utp18 fragments (0.95 nmol) incubated with Utp21 1–684 (1.9 nmol) 2 h at 4°C, bound to Ni Sepharose beads; washed with 25 mM Tris-HCl pH 7.6, 500 mM NaCl, 10 mM imidazole; SDS-PAGE, Coomassie. To be noted: both partners purified.

B1: His6-Smt3-Utp18 100–139 (domain or fragment, yeast (S. cerevisiae), UniProt P40362 100-139, looked up)
chain: EDTMDVDDEDDSSSDDYSEDSEEAAWIDSDDEKIKVPILV
notes: Utp18, yeast (S. cerevisiae), residues 100–139; source: expressed from pET28a, purified (HisTrap and Q chromatography); not shown: His6, N-terminal, kept; Smt3, N-terminal, kept
As to B1, the binding result is recorded as “binds”.

B2: His6-Smt3-Utp18 100–190 (domain or fragment, yeast (S. cerevisiae), UniProt P40362 100-190, looked up)
chain: EDTMDVDDEDDSSSDDYSEDSEEAAWIDSDDEKIKVPILVTNKTKKLRTSYNESKINGVHYINRLRSQFEKIYPRPKWVDDESDSELDDEE
notes: Utp18, yeast (S. cerevisiae), residues 100–190; source: expressed from pET28a, purified (HisTrap and Q chromatography); not shown: His6, N-terminal, kept; Smt3, N-terminal, kept
For B2, the binding result was “binds”.

B3: His6-Smt3-Utp18 139–190 (domain or fragment, yeast (S. cerevisiae), UniProt P40362 139-190, looked up)
chain: VTNKTKKLRTSYNESKINGVHYINRLRSQFEKIYPRPKWVDDESDSELDDEE
notes: Utp18, yeast (S. cerevisiae), residues 139–190; source: expressed from pET28a, purified (HisTrap and Q chromatography); not shown: His6, N-terminal, kept; Smt3, N-terminal, kept
For B3, the binding result was “binds”.
